Measurements as given in patent publication US20200200749A1 (published 2020).

Assays:
SUDV GP (recombinant) = biological target: T1, SUDV GP (recombinant) (SUDV (Sudan ebolavirus), UniProt Q66814 33-650); assay: ELISA
T1 chain: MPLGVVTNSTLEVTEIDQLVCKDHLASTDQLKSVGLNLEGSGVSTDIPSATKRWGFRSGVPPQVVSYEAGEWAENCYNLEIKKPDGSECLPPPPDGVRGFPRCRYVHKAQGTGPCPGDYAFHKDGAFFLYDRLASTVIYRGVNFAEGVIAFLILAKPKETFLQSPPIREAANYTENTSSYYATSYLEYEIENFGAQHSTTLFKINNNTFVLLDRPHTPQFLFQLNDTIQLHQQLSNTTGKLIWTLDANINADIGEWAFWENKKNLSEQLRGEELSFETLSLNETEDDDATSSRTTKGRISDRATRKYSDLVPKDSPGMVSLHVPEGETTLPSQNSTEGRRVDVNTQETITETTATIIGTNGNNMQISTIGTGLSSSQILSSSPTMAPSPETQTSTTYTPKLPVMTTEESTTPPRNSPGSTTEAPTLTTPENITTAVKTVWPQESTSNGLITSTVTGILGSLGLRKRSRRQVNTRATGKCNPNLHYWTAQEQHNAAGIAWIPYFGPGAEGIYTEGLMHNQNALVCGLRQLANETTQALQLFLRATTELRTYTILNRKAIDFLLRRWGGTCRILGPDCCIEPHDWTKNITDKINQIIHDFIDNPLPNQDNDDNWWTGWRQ

[1] = biological target: T2, EBOV GP (recombinant, full-length extracellular domain) (EBOV (Ebola Zaire), UniProt Q05320 33-650); assay: ELISA
T2 chain: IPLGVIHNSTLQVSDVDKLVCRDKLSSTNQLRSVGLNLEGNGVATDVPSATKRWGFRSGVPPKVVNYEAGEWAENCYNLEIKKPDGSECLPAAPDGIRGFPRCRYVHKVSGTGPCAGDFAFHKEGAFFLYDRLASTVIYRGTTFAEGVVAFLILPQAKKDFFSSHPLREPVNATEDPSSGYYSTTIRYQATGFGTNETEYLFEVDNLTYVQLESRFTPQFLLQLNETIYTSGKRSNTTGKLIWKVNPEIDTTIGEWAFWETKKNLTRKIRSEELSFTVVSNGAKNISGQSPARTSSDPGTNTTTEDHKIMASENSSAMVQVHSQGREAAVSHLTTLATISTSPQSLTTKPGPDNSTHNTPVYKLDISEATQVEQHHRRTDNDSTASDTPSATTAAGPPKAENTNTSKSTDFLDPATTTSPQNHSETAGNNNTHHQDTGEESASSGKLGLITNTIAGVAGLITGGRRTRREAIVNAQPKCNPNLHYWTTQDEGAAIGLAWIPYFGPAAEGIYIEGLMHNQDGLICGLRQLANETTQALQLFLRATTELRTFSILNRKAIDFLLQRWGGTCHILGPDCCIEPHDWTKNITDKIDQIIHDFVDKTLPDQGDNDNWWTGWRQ

Row | Binder | EC50 (SUDV GP (recombinant)) | EC50 [1]
1 | BDBV223 (antibody, V domains shown) VH: QVQLQQWGAGLLKPSETLSLTCAVYGGSFTTTYWNWIRQPPGKGLEWIGEVNYSGNANYNPSLKGRVAISVDTSKNQFSLRLNSVTAADTAIYYCTSRIRSHIAYSWKGDVWGKGTTVTVSS VL: EIVMTQSPGTLSLSPGERATLSCRASQSVPRNYIGWFQQKPGQAPRLLIYGASSRAAGFPDRFSGSGSGTDFTLTITRLEPEDFAMYYCHQYDRLPYTFGQGTKLEIK | 0.106 µg/mL | 0.024 µg/mL
2 | BDBV270 (antibody, V domains shown) VH: QVQLQESGPGLVKPSQTLSLTCTVSGASISRGLYYWSWIRQPAGKGLEWIGRIYTSGSINYNPSLKSRVTISVDTSKNQFSLRLSSVIATDTAVYYCVRDAPWGDFLTGYFGFYGMDVWGQGTLVTVSS VL: DIVMTQSPSSLSASVGDRVTITCRASQSINTYLNWYQQKPGKAPKFLIYAASSLHSGVPSRFSGSGSGTDFTLTINSLQPDDFATYYCQQSFTTPYTFGQGTKLEIK | 0.159 µg/mL | 0.173 µg/mL
3 | BDBV324 (antibody, V domains shown) VH: QVQLVQSGAEVKKPGASVKVSCKTSGYTFTSFEIHWVRQGSGQGLEWMGRMNPKSGDTVSAQKFQGRVTLTRDTSINAAYMELGSLSSEDTAVYYCARGPHVGEVVPGLMAGTYYFPLDVWGQGTLVTVSS VL: DIQMTQSPSTLSASIGDRVTITCRASQSISRWLAWYQQKPGKAPKLLIYKVSDLQSGVPSRFSGSGYGTEFTLTIGSLQPDDLATYYCQQYDTYPWTFGQGTKLEIK | 0.09 µg/mL | 0.131 µg/mL
4 | BDBV289 (antibody, V domains shown) VH: QVQLVQSGAEVKKPGSSVKVSCKASGATFGSDTVTWVRQAPGQGLEWMGGIIPFFGEANYAQRFQGRVTITADKSTNTAYMELSSLRSEDTAVYFCARQINEMATFGEIHYYTYMDVWGQGTLVTVSS VL: GSELTQDPAVSVALGQTVRITCQGDSLRNYYASWYQQKPRQAPVLVFYGKNNRPSGIPDRFSGSSSGNTASLTISGAQAEDEADYYCNSRDSSSNHLVFGGGTKLTVLS | 0.103 µg/mL | 0.029 µg/mL
